Source: article PMC4393884 (Structure (London, England : 1993), 2014)

T1: truncated PR-B (233-933) (human, UniProt P06401 233-933)
T1 sequence (looked up): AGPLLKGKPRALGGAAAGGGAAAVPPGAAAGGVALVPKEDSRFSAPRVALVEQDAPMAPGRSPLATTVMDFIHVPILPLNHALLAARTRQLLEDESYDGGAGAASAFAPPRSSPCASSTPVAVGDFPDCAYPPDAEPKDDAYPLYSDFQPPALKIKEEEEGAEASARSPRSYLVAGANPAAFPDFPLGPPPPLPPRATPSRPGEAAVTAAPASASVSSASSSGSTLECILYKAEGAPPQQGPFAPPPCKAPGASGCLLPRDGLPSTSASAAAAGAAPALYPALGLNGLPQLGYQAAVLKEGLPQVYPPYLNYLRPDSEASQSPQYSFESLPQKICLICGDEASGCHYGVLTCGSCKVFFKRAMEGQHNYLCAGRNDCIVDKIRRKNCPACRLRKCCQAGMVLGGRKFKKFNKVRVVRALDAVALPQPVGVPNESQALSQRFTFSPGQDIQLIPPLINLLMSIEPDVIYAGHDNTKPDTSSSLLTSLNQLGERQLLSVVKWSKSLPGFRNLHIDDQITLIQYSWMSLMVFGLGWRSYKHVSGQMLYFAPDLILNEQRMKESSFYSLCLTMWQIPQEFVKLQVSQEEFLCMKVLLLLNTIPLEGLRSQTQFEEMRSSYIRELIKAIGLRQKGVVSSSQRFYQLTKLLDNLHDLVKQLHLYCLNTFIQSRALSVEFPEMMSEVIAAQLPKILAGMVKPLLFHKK

B1: C-terminal core DNA binding domain (aa 159-339) of human TATA-binding protein (TBPc) (domain or fragment, UniProt P20226 159-339, looked up)
chain: SGIVPQLQNIVSTVNLGCKLDLKTIALRARNAEYNPKRFAAVIMRIREPRTTALIFSSGKMVCTGAKSEEQSRLAARKYARVVQKLGFPAKFLDFKIQNMVGSCDVKFPIRLEGLVLTHQQFSSYEPELFPGLIYRMIKPRIVLLIFVSGKVVLTGAKVRAEIYEAFENIYPILKGFRKTT
B2: full length progesterone receptor isoform B (PR-B) (receptor, human, UniProt P06401 1-933, looked up)
chain: MTELKAKGPRAPHVAGGPPSPEVGSPLLCRPAAGPFPGSQTSDTLPEVSAIPISLDGLLFPRPCQGQDPSDEKTQDQQSLSDVEGAYSRAEATRGAGGSSSSPPEKDSGLLDSVLDTLLAPSGPGQSQPSPPACEVTSSWCLFGPELPEDPPAAPATQRVLSPLMSRSGCKVGDSSGTAAAHKVLPRGLSPARQLLLPASESPHWSGAPVKPSPQAAAVEVEEEDGSESEESAGPLLKGKPRALGGAAAGGGAAAVPPGAAAGGVALVPKEDSRFSAPRVALVEQDAPMAPGRSPLATTVMDFIHVPILPLNHALLAARTRQLLEDESYDGGAGAASAFAPPRSSPCASSTPVAVGDFPDCAYPPDAEPKDDAYPLYSDFQPPALKIKEEEEGAEASARSPRSYLVAGANPAAFPDFPLGPPPPLPPRATPSRPGEAAVTAAPASASVSSASSSGSTLECILYKAEGAPPQQGPFAPPPCKAPGASGCLLPRDGLPSTSASAAAAGAAPALYPALGLNGLPQLGYQAAVLKEGLPQVYPPYLNYLRPDSEASQSPQYSFESLPQKICLICGDEASGCHYGVLTCGSCKVFFKRAMEGQHNYLCAGRNDCIVDKIRRKNCPACRLRKCCQAGMVLGGRKFKKFNKVRVVRALDAVALPQPVGVPNESQALSQRFTFSPGQDIQLIPPLINLLMSIEPDVIYAGHDNTKPDTSSSLLTSLNQLGERQLLSVVKWSKSLPGFRNLHIDDQITLIQYSWMSLMVFGLGWRSYKHVSGQMLYFAPDLILNEQRMKESSFYSLCLTMWQIPQEFVKLQVSQEEFLCMKVLLLLNTIPLEGLRSQTQFEEMRSSYIRELIKAIGLRQKGVVSSSQRFYQLTKLLDNLHDLVKQLHLYCLNTFIQSRALSVEFPEMMSEVIAAQLPKILAGMVKPLLFHKK
B3: full length progesterone receptor isoform A (PR-A) (receptor, human, UniProt P06401-2 1-769, looked up)
chain: MSRSGCKVGDSSGTAAAHKVLPRGLSPARQLLLPASESPHWSGAPVKPSPQAAAVEVEEEDGSESEESAGPLLKGKPRALGGAAAGGGAAAVPPGAAAGGVALVPKEDSRFSAPRVALVEQDAPMAPGRSPLATTVMDFIHVPILPLNHALLAARTRQLLEDESYDGGAGAASAFAPPRSSPCASSTPVAVGDFPDCAYPPDAEPKDDAYPLYSDFQPPALKIKEEEEGAEASARSPRSYLVAGANPAAFPDFPLGPPPPLPPRATPSRPGEAAVTAAPASASVSSASSSGSTLECILYKAEGAPPQQGPFAPPPCKAPGASGCLLPRDGLPSTSASAAAAGAAPALYPALGLNGLPQLGYQAAVLKEGLPQVYPPYLNYLRPDSEASQSPQYSFESLPQKICLICGDEASGCHYGVLTCGSCKVFFKRAMEGQHNYLCAGRNDCIVDKIRRKNCPACRLRKCCQAGMVLGGRKFKKFNKVRVVRALDAVALPQPVGVPNESQALSQRFTFSPGQDIQLIPPLINLLMSIEPDVIYAGHDNTKPDTSSSLLTSLNQLGERQLLSVVKWSKSLPGFRNLHIDDQITLIQYSWMSLMVFGLGWRSYKHVSGQMLYFAPDLILNEQRMKESSFYSLCLTMWQIPQEFVKLQVSQEEFLCMKVLLLLNTIPLEGLRSQTQFEEMRSSYIRELIKAIGLRQKGVVSSSQRFYQLTKLLDNLHDLVKQLHLYCLNTFIQSRALSVEFPEMMSEVIAAQLPKILAGMVKPLLFHKK

Key:
[1] = molecular target: B3; experiment: HDX-MS
[2] = molecular target: B2; experiment: HDX-MS
truncated PR-B (233-933) = molecular target: T1, truncated PR-B (233-933); experiment: HDX-MS
SEC = molecular target: the molecule itself; experiment: SEC

binding result [1] | binding result [2] | binding result (truncated PR-B (233-933)) | Binder | stoichiometry N (SEC)
binds | binds | binds | B1 | –
– | – | – | B2 | 2
– | – | – | B3 | 2
